Measurements reported in publication PMC3021526, “Rise and Fall of an Anti-MUC1 Specific Antibody” (PLoS ONE, 2011).
Residue numbers refer to the chain shown, from its start.

T1: MUC1 15 aa peptide with cysteine (…-C) (human)
T1 sequence (peptide): APDTRPAPGSTAPPAC

T2: MUC1 15 aa peptide with cysteine (APDTRPAPGSTAPPA-C) (Homo sapiens (synthetic peptide))
T2 construct: 15 residues of the tandem repeat (VNTR) of human MUC1; added C-terminal cysteine, used for coupling to the chip; also called MUC1 peptide; MUC1 peptide antigen
T2 chain: APDTRPAPGSTAPPAC

T3: MUC1 32 aa peptide with a C-terminal cysteine (APDTRPAPGSTAPPAHGVTSAPDTRPAPGSTA-C) (Homo sapiens (synthetic peptide))
T3 construct: 32 residues of the tandem repeats (VNTR) of human MUC1; added C-terminal cysteine; also called MUC1 peptide antigen (32mer cys); MUC1 32mer Cys peptide
T3 chain: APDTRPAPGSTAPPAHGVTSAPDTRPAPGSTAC

B1: human anti-MUC1 scFv IIB6 (scFv, V domains shown)
VH: QMQLVQSGAEVKKPGASVKVSCKASGYTFTGHYMHWVRQAPGQGLEWMGWIDPVTGGTKYAQNFQGWVTMTRDTSIRTAYMELSRLRSDDTAMYYCAREVTGDRGQFDKWGQGTLVTVAS
VL: QSVLTQPPSVSVAPGKTARITCGGNNIGSKSVHWYQQKPGQAPVLVIYYDSDRPSGIPERFSGSNSGNTATLTISRVEAGDEADYYCQVWDSSSDWVFGGGTKLTVL
B2: HT186-D11 human IgG (antibody, V domains shown)
VH: B1 VH with G8E, V11L, T28S, M81L
VL: B1 VL with V44A, D50G, D52N
B3: affinity matured anti-MUC1 scFv HT220-M-G8 (scFv, V domains shown)
VH: B1 VH with K12M, T28S, Q39H, G57S, R77S
VL: B1 VL with D50G, S66T, T69M
notes: source: E. coli, IMAC purified; also culture supernatant from microtitre plates; not shown: c-myc, C-terminal, kept
B4: affinity matured anti-MUC1 scFv HT186-G2 (scFv, V domains shown)
VH: B1 VH with Q1R, V20L, T30A, Q43R
VL: B1 VL with D50G, P54S
notes: From IIB6 by error-prone PCR (library A), off-rate panning; source: E. coli, IMAC purified; also culture supernatant from microtitre plates; not shown: c-myc, C-terminal, kept
B5: affinity matured anti-MUC1 scFv HT200-3A-C1 (scFv, V domains shown)
VH: B1 VH
VL: B1 VL with V12M, K16E, Y49N, N68K, S94I
notes: one potential N-glycosylation site in CDR2; From IIB6 by nested error-prone PCR (library B), panning in solution; source: E. coli, IMAC purified; also culture supernatant from microtitre plates; not shown: c-myc, C-terminal, kept
B6: affinity matured anti-MUC1 scFv HT220-M-D1 (scFv, V domains shown)
VH: B1 VH with Q3L, V11A, S88P
VL: B1 VL with A13V, T21I, Y49N, D50N, T69M, A83S, K103R, V106I
notes: one potential N-glycosylation site in CDR2; source: E. coli, IMAC purified; also culture supernatant from microtitre plates; not shown: c-myc, C-terminal, kept
B7: affinity matured anti-MUC1 scFv HT186-B7 (scFv, V domains shown)
VH: B1 VH
VL: B1 VL with V44A, D50G, D52Y, S66Y, S75R
notes: as for B4
B8: HT186-G2 human IgG (antibody, V domains shown)
VH: B1 VH with Q1R, V20L, T30A, Q43R
VL: B1 VL with D50G, P54S
notes: as the VH of m4; human IgG heavy-chain constant region from the expression vector CHK622-08; as the VL of m4; C lambda derived from the vector CHL558-0; VH and VL ordered as synthetic genes, codon optimised for rat; also called HT186-G2 IgG
B9: affinity matured anti-MUC1 scFv HT186-D11 (scFv, V domains shown)
VH: B1 VH with G8E, V11L, T28S, M81L
VL: B1 VL with V44A, D50G, D52N
notes: as for B4

Assays:
[1] = target: synthetic MUC1 glycopeptide APDT(GalNAc)… (human); assay: SPR; IIB6 on the MUC1 glycopeptide; data not shown
[2] = target: T1, MUC1 15 aa peptide with cysteine (…-C) (human); assay: SPR; Biacore 2000; about 50 RU MUC1 15 aa peptide with cysteine coupled on a CM5 chip (NHS/EDC, PDEA); serial dilutions of scFv (0-400 nM) at 50 µL/min; 1:1 Langmuir separate fitting; IIB6 by steady-state model
[3] = target: human anti-MUC1 scFv IIB6 (human); assay: SEC; 80 µg IMAC purified scFv on Superdex200 10/300, PBS, 0.5 mL/min; monomer to dimer
[4] = target: MUC1 on MCF-7 cells (human (endogenous in MCF-7)) (UniProt P15941); assay: flow cytometry on cells; internalisation assay: MCF-7 cells with 10 µg/ml antibody on ice 1 h, washed, 1 h at 4°C; surface antibody detected by PE-conjugated mouse anti-human IgG
Chain of MUC1 on MCF-7 cells (human (endogenous in MCF-7)) (P15941 24-1255): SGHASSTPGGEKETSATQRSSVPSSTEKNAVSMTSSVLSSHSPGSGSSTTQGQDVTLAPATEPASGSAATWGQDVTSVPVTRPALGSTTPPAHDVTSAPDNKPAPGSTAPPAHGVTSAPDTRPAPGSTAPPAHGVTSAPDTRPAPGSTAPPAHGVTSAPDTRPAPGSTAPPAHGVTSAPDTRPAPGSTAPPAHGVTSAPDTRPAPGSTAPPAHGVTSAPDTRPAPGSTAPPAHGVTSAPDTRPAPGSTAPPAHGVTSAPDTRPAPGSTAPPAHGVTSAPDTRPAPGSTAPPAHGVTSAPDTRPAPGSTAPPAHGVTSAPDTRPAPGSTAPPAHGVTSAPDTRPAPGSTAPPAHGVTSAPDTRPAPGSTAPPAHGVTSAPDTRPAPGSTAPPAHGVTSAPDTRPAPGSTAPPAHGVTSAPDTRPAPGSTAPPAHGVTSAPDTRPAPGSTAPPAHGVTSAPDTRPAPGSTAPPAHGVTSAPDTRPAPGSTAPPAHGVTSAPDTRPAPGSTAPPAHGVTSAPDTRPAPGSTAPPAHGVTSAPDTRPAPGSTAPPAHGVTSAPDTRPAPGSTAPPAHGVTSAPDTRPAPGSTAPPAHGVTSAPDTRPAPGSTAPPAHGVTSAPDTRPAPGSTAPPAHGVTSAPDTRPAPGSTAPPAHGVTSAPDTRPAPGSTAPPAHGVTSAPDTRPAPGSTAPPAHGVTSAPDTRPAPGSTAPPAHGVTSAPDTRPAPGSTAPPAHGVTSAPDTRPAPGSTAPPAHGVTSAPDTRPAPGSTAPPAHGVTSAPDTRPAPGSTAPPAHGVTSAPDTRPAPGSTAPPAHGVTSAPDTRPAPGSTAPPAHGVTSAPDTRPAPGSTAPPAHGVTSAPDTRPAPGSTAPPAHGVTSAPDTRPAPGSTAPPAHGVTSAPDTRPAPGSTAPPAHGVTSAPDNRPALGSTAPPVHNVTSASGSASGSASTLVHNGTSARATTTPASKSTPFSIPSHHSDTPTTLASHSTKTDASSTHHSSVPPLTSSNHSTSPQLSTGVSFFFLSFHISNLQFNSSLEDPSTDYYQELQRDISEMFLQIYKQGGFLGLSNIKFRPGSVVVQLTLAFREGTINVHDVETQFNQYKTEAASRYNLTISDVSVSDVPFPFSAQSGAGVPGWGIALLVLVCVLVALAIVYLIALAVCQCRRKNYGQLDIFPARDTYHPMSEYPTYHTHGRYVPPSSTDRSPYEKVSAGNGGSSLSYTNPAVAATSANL

[5] = target: T2, MUC1 15 aa peptide with cysteine …; assay: SPR; Biacore 2000; about 50 RU MUC1 15 aa peptide with cysteine coupled on a CM5 chip (NHS/EDC, PDEA); serial dilutions of scFv (0-400 nM) at 50 µL/min; 1:1 Langmuir separate fitting; IIB6 by steady-state model; settings: both partners purified
[6] = target: affinity matured anti-MUC1 scFv HT220-M-G8 (human); assay: SEC; 80 µg IMAC purified scFv on Superdex200 10/300, PBS, 0.5 mL/min; monomer to dimer
[7] = target: T3, MUC1 32 aa peptide with a C-terminal …; assay: ELISA; MUC1 32 aa peptide with C-terminal cysteine coated in PBS over night at 4°C; dilution series of purified scFv, scFv-Fc or IgG in 2% M-PBST, 1.5 h at RT; scFv detected by 9E10 (c-myc), scFv-Fc and IgG by anti-human Fc HRP; settings: both partners purified

Binder	Kd [5] [nM]	koff [5] [s⁻¹]	kon [5] [M⁻¹ s⁻¹]	other results
B1				Kd [1]: 230 nM; Kd [2]: 310 nM; percent of the scFv dimerised [3]: 50%; stoichiometry N [3]: 2
B2				percentage of MUC1 positive cells (4°C) [4]: 68%
B3	4.4	0.00022	50000	percent of the scFv dimerised [6]: 50%; stoichiometry N [6]: 2
B4	≤ 1	≤ 1e-05	72000	
B5	2.1	0.0001	49000	
B6	3.7	0.00011	29000	
B7	1.3	2.1e-05	35000	
B8				fold decrease of affinity against the scFv-Fc format [7]: ~10 fold
B9	0.57	7.2e-05	38000	
